# Substitutions are numbered along the chain they refer to.
# T1: recombinant hMCAM-His (human, UniProt P43121 24-559)
# T1 construct: not shown: His tag
# T1 chain: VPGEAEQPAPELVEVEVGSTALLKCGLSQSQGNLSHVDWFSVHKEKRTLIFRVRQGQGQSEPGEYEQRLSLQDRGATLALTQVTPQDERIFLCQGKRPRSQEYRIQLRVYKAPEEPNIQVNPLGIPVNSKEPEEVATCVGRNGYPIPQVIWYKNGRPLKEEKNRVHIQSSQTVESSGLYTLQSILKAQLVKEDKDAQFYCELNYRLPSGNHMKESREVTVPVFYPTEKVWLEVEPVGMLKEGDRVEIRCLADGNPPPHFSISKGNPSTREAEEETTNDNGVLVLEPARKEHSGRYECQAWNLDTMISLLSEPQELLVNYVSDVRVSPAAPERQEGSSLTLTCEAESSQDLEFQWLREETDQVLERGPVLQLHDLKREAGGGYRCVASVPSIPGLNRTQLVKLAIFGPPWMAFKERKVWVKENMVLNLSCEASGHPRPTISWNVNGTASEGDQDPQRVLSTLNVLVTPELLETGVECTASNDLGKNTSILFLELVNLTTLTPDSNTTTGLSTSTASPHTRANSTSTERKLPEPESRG
# T2: human MCAM (melanoma cell adhesion molecule) expressed on transfected CHO cells (human, UniProt P43121 24-646)
# T2 construct: also called hMCAM; CD146
# T2 chain: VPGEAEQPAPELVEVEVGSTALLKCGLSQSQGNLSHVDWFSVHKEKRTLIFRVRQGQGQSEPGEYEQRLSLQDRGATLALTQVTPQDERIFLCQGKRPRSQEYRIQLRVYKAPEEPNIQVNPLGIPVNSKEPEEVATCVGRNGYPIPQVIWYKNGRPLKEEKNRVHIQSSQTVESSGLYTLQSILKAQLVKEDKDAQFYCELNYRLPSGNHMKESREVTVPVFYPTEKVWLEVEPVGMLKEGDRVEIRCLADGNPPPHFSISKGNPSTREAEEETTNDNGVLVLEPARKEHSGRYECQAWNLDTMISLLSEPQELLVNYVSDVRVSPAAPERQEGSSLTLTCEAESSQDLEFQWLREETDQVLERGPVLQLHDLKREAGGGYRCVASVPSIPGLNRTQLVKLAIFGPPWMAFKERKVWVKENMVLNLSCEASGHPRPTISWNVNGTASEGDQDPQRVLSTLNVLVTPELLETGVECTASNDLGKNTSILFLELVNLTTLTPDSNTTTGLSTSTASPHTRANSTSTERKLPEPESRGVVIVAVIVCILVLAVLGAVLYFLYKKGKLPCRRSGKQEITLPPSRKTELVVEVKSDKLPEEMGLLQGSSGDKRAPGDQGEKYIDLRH
# B1: h1749VH2 + h1749VL2 (antibody, human IgG1, V domains shown)
# VH: EVQLVESGGGLVQPGGSLRLSCAASGFTFSSYIMSWVRQAPGKRLEWVATISSGGSSTYYPDSVKGRFTISRDNAKNSLYLQMNSLRAEDTAVYYCTRDDDYDVKVFAYWGQGTMVTVSS
# VL: DIVMTQSPDSLAVSLGERATINCKSSRSLLNSRIRKNYLAWYQQKPGQPPKLLIYWASTRESGVPDRFTGSGSGTDFTLTISSLQAEDVAVYYCKQSYNLLTFGQGTKVEIK
# notes: also called humanized 1749 conservative VH and VL
# B2: h1749VH1 + h1749VL1 (antibody, human IgG1, V domains shown)
# VH: B1 VH with R44G
# VL: B1 VL with T69S
# notes: also called humanized 1749 standard VH and VL
# B3: rat anti-human MCAM monoclonal antibody clone 2107.4.10 (antibody, V domains shown)
# VH: QVQLKESGPGLVQSSQTLSLTCTVSGFSLTSNGVSWVRQPPGKGLEWIAAISSGGSTYYNSAFKSRLSISRNTSKSQVLLKMNSLQTEDTGMYFCARHRPFYFDYWGQGVMVTVSS
# VL: DIQVTQSPSLLSASVGDRVTLNCKGSQNIYKSLAWFRLKRGEAPKLLIYDANSLQTGIPSRFSGSGSGTDFTLTITSLQPEDVATYFCQQYYSGYTFGAGTKLELK
# notes: rat hybridoma antibody; elsewhere '83 or 84'); also called rodent 2107; murine 2107.4.10.18 anti-MCAM antibody
# B4: h2120_VH3 + h2120_VL3 (antibody, human IgG1, V domains shown)
# VH: QVTLKESGPVLVKPTETLTLTCTVSGFSLTSSGVSWVRQPPGKALEWIAAISSGGTTYYNSAFKSRLTISRDTSKSQVVLTMTNMDPVDTATYYCARRYGYGWYFDFWGQGTLVTVSS
# VL: DIQMTQSPSSLSASVGDRVTINCKASQNIYNSLAWYQQKPGKAPKVLIFNANSLQTGIPSRFSGSGSGTDFTLTISSLQPEDFATYYCQQFYSGYTFGQGTKLEIK
# Columns and labels:
# [1] = biological target: T1, recombinant hMCAM-His; assay: ForteBio Octet Red, hMCAM-His analyte; Expt. #2; vs rodent 1749
# Description: (§1) The affinities were measured using the ForteBio Octet Red. Anti-human Fc sensors were used to capture the humanized antibodies, and several concentrations of hMCAMHis analyte were used to determine the affinity using a 1:1 fitting model.
# [2] = biological target: T1, recombinant hMCAM-His; assay: ForteBio Octet Red, hMCAM-His analyte; Expt. #1; vs rodent 1749
# Description: as §1
# [3] = biological target: T1, recombinant hMCAM-His; assay: ForteBio Octet Red, hMCAM-His analyte; Forte column 1; vs rodent 1749
# Description: as §1
# [4] = biological target: T1, recombinant hMCAM-His; assay: summary of ForteBio and competitive ELISA on hMCAM-His; vs rodent 1749
# Description: (§2) ELISA plates were coated with recombinant hMCAM-His, and blocked with casein buffer to prevent non-specific binding. Biotinylated rodent or chimeric antibody was added at a subsaturating concentration, in the presence or absence of 3× increasing concentrations of unlabeled competitor (humanized antibody, rodent, or chimeric). After washing to remove unbound antibody, streptavidin HRP was added to allow detection of the biotinylated antibody. The ELISA was developed with TMB substrate and the OD450 was measured. The IC50 of the unlabeled competitor was determined using the GraphPad Prism5 software.
# as §1
# [5] = biological target: T1, recombinant hMCAM-His; assay: competitive ELISA on hMCAM-His, competitor biotinylated rodent or chimeric 1749; Expt. #2; vs rodent 1749
# Description: as §2
# [6] = biological target: T2, human MCAM (melanoma cell adhesion …); assay: laminin/FACS on hMCAM CHO cells, competitor laminin 411; Expt#1; vs rodent 1749
# Description: (§3) Following incubation for 30-45 minutes, the cells were washed and anti-laminin conjugated to AF650 (NovusBio) was added to detect the bound laminin. The cells were run on a flow cytometer to measure the laminin binding signal.
# [7] = biological target: T1, recombinant hMCAM-His; assay: competitive ELISA on hMCAM-His, competitor biotinylated rodent or chimeric 1749; vs rodent 1749
# [8] = biological target: T1, recombinant hMCAM-His; assay: competitive ELISA on hMCAM-His, competitor biotinylated rodent or chimeric 1749; Expt. #1; vs rodent 1749
# Description: as §2
# [9] = biological target: T2, human MCAM (melanoma cell adhesion …); assay: laminin/FACS on hMCAM CHO cells, competitor laminin 411; Expt#2; vs rodent 1749
# Description: as §3
# [10] = biological target: T2, human MCAM (melanoma cell adhesion …); assay: laminin/FACS blocking assay, % inhibition of laminin 411 binding to hMCAM-expressing CHO cells against antibody concentration; blocked ligand: laminin 411
# Description: as §3
# [11] = biological target: T2, human MCAM (melanoma cell adhesion …); assay: summary of laminin blocking assay on hMCAM CHO cells, competitor laminin 411; vs rodent 1749
# Description: as §3
# [12] = biological target: T2, human MCAM (melanoma cell adhesion …); assay: laminin/FACS on hMCAM CHO cells, competitor laminin 411; Expt#1; vs rodent 2107
# Description: as §3
# [13] = biological target: T1, recombinant hMCAM-His; assay: competitive ELISA on hMCAM-His, competitor biotinylated rodent or chimeric 2107; vs rodent 2107
# Description: as §2
# [14] = biological target: T1, recombinant hMCAM-His; assay: ForteBio Octet Red, hMCAM-His analyte; Forte column 1; vs rodent 2107
# Description: as §1
# [15] = biological target: T1, recombinant hMCAM-His; assay: ForteBio Octet Red, hMCAM-His analyte; Forte column 2; vs rodent 2107
# Description: as §1
# [16] = biological target: T1, recombinant hMCAM-His; assay: ForteBio Octet Red, hMCAM-His analyte; Expt. #1; vs rodent 2107
# Description: as §1
# [17] = biological target: T1, recombinant hMCAM-His; assay: competitive ELISA on hMCAM-His, competitor biotinylated rodent or chimeric 2107; Expt. #2; vs rodent 2107
# Description: as §2
# [18] = biological target: T2, human MCAM (melanoma cell adhesion …); assay: flow cytometry, human MCAM CHO cells preincubated with antibody, competitor recombinant human laminin 411 at 20 ug/ml
# Description: The 87 independent mouse fusion clones and 26 independent rat fusion clones described in Example 10 above as being capable of (i) binding to human MCAM, and (ii) blocking the interaction between human MCAM and the α-4 chain of laminin were further characterized as follows. First, IC50 quantitation for the ability of the monoclonal antibody to block the binding of human MCAM to the α-4 chain of laminin was determined as follows. CHO cells expressing human MCAM were incubated with an anti-human MCAM antibody (at various concentrations) for 30 minutes at 4 degrees Celsius. […] Unbound laminin was then washed away, and the laminin bound to the surface of the cells was detected with fluorescently labeled anti-laminin antibodies. After washing, the amount of laminin bound to the surface was detected by flow cytometry, and IC50s were calculated based on the mean fluorescent intensity.
# These six anti-MCAM monoclonal antibody clones are herein referred to as (i) the mouse anti-human MCAM monoclonal clones 1174.1.3, 1414.1.2, 1415.1.1, and 1749.1.3, and (ii) the rat anti-human MCAM monoclonal antibody clones 2120.4.19 and 2107.4.10. […] As such, each of these specific monoclonal antibodies was very capable of binding to human MCAM and inhibiting the interaction of cell-expressed human MCAM with its α-4 laminin binding ligand.
# [19] = biological target: T1, recombinant hMCAM-His; assay: competitive ELISA on hMCAM-His, competitor biotinylated rodent or chimeric 2107; Expt. #1; vs rodent 2107
# Description: as §2
# [20] = biological target: T1, recombinant hMCAM-His; assay: ForteBio Octet Red, hMCAM-His analyte; Expt. #2; vs rodent 2107
# Description: as §1
# [21] = biological target: T1, recombinant hMCAM-His; assay: summary of ForteBio, hMCAM-His; vs rodent 2120
# Description: as §1
# [22] = biological target: T1, recombinant hMCAM-His; assay: ForteBio Octet Red, hMCAM-His analyte; Expt. #1; vs rodent 2120
# Description: as §1
# [23] = biological target: T1, recombinant hMCAM-His; assay: competitive ELISA on hMCAM-His, competitor biotinylated rodent or chimeric 2120; Expt. #1; vs rodent 2120
# Description: as §2
binder,measurement,setting,value
B1,fold over rodent (Forte affinity),[1],1.09 fold
same,fold over rodent (Forte affinity),[2],0.73 fold
same,fold over rodent (Forte affinity),[3],0.7 fold
same,fold reduction in affinity compared to the rodent,[4],< 2 fold
same,fold over rodent (competitive ELISA),[5],1.46 fold
same,"fold over rodent (blocking, laminin/FACS)",[6],1.8 fold
same,fold over rodent (competitive ELISA),[7],1.1 fold
same,fold over rodent (competitive ELISA),[8],1.28 fold
same,"fold over rodent (blocking, laminin/FACS)",[9],1.7 fold
same,IC50 (read off the curve),[10],~0.4 µg/mL
same,fold reduction in potency compared to the rodent,[11],< 2 fold
B2,fold over rodent (Forte affinity),[1],2.41 fold
same,fold over rodent (Forte affinity),[2],2.5 fold
same,fold over rodent (Forte affinity),[3],2.5 fold
same,fold reduction in affinity compared to the rodent,[4],< 2 fold
same,fold over rodent (competitive ELISA),[5],1.35 fold
same,"fold over rodent (blocking, laminin/FACS)",[6],1.4 fold
same,fold over rodent (competitive ELISA),[7],1 fold
same,fold over rodent (competitive ELISA),[8],1.26 fold
same,"fold over rodent (blocking, laminin/FACS)",[9],1.4 fold
same,fold reduction in potency compared to the rodent,[11],< 2 fold
B3,"fold over rodent (blocking, laminin/FACS)",[12],1 fold
same,fold over rodent (competitive ELISA),[13],1 fold
same,fold over rodent (Forte affinity),[14],1 fold
same,fold over rodent (Forte affinity),[15],1 fold
same,fold over rodent (Forte affinity),[16],1 fold
same,fold over rodent (competitive ELISA),[17],1 fold
same,IC50,[18],0.29 µg/mL
same,fold over rodent (competitive ELISA),[19],1 fold
same,fold over rodent (Forte affinity),[20],1 fold
B4,fold reduction in affinity as measured by ForteBio,[21],> 5 fold
same,fold over rodent (Forte affinity),[22],16.1 fold
same,fold over rodent (competitive ELISA),[23],3.47 fold

# Source: patent US20150239980A1 (NEOTOPE BOSCIENCES, published 2015)
